# Changes are numbered by the printed parent chain.
# B1: 366_A02 (antibody, V domains shown)
# VH: EVQLLESGGGLVQPGGSLRLSCAASGFTFDSYGMNWVRQAPGKGLEWVASINYNSGYKGYADSVKGRFTISRDNSKNTLYLQMNSLRAEDTAVYYCARAANWHDTHLDYWGQGTLVTVSS
# VL: DIQMTQSPSSLSASVGDRVTITCRASQSIVSYVNWYQQKPGKAPKLLIYAATSRASGVPSRFSGSGSGTDFTLTISSLQPEDFATYYCQQSYDLPLTFGGGTKVEIK
# notes: Group I
# B2: 366_A04 (antibody, V domains shown)
# VH: B1 VH with D30S, S50G, S55G, K58T, G59S, H106A
# VL: B1 VL with V30L, S31T, V33L, L47V, R54L, Y92D, L94S
# notes: Group I
# B3: 366_B07 (antibody, V domains shown)
# VH: B1 VH with D30S, S31D, A49S, S50G, S55G, K58T, G59S, A99G
# VL: B1 VL with V33L, L47V, A51T, D93N, L94S
# notes: Group III
# B4: 366_B09 (antibody, V domains shown)
# VH: B1 VH with D30S, S31D, N35H, A49S, G59S, N101T
# VL: B1 VL with V30L, S31T, V33L, L47V, A55H, L94S
# notes: Group II
# B5: 366_C05 (antibody, V domains shown)
# VH: B1 VH with S31D, N35H, A49S, S55G, K58T, N101T
# VL: B1 VL with V30I, V33L, L47V, L94S
# notes: Group II
# B6: 366_D01 (antibody, V domains shown)
# VH: B1 VH with D30S, N35H, A49S, S55G, K58T
# VL: B1 VL with V30L, S31T, D93E, L94N
# notes: Group I
# B7: 366_D03 (antibody, V domains shown)
# VH: B1 VH with N35H, A49S, S55G, K58T
# VL: B1 VL with V30L
# notes: Group I
# B8: 366_E01 (antibody, V domains shown)
# VH: B1 VH with A49S, S50N, S55G, G59S, A99G
# VL: B1 VL with V30L, S31T, V33L, D93S, L94S
# notes: Group III
# B9: 366_E07 (antibody, V domains shown)
# VH: B1 VH with N35H, S50G, S55G, K58T, G59S, N101T, H106A
# VL: B1 VL with V30L, S31T, V33L, L47V, A55H, Y92D, D93N, L94S
# notes: Group II
# B10: 366_E08 (antibody, V domains shown)
# VH: B1 VH with D30S, S31D, G33S, A49S, S50N, S55G, K58T, G59S, A99G
# VL: B1 VL with S31T, V33L, A55H, D93S, L94N
# notes: Group III
# B11: 366_F02 (antibody, V domains shown)
# VH: B1 VH with D30S, A49S, S50G, K58T, A99G
# VL: B1 VL with V30L, S31T, V33L, L47V, A55H, L94N
# notes: Group III
# B12: 366_F10 (antibody, V domains shown)
# VH: B1 VH with G33S, S50G, S55G, K58T
# VL: B1 VL with V33L, L47V, L94T
# notes: Group I
# B13: 366_G02 (antibody, V domains shown)
# VH: B1 VH with N35H, A49S, S55G, K58T, G59S, N101T
# VL: B1 VL with V30L, S31T, V33L, A55H, Y92D, L94N
# notes: Group II
# B14: 366_G06 (antibody, V domains shown)
# VH: B1 VH with D30S, N35H, S55G, K58T
# VL: B1 VL with L47V, L94N
# notes: Group I
# B15: 366_G12 (antibody, V domains shown)
# VH: B1 VH with D30S, N35H, A49S, S50G, A99G
# VL: B1 VL with V30L, V33L, A55H, D93N, L94T
# notes: Group III
# B16: 366_H01 (antibody, V domains shown)
# VH: B1 VH with S31D, G33S, N35H, S50N, S55G, K58T, G59S, N101T
# VL: B1 VL with V30L, S31T, V33L, L47V, A51T, A55H, D93E, L94S
# notes: Group II
# B17: 366_H04 (antibody, V domains shown)
# VH: B1 VH with A49S, S50N, S55G, G59S, A99G
# VL: B1 VL with V30L, S31T, V33L, D93S, L94S
# notes: Group III
# B18: 367_A03 (antibody, V domains shown)
# VH: B1 VH with S50G, S55G, K58T, G59S, A99G, H106A
# VL: B1 VL with V30L, S31T, A51T, A55H, L94S
# notes: Group III
# B19: 367_A06 (antibody, V domains shown)
# VH: B1 VH with S55G, A99G
# VL: B1 VL with V30L, A55H, L94T
# notes: Group III
# B20: 367_A08 (antibody, V domains shown)
# VH: B1 VH with S50G, S55G, K58T, G59S, A99G
# VL: B1 VL with V30L, S31T, V33L, A51V, L94S
# notes: Group III
# B21: 367_B09 (antibody, V domains shown)
# VH: B1 VH with N35H, S55G, K58T, G59S, H106A
# VL: B1 VL with V30L, L47V, D93E, L94N
# notes: Group I
# B22: 367_B11 (antibody, V domains shown)
# VH: B1 VH with D30S, S31D, G33S, N35H, S50N, K58T, G59S, H106A
# VL: B1 VL with V30L, V33L, L47V, D93S, L94T
# notes: Group I
# B23: 367_C06 (antibody, V domains shown)
# VH: B1 VH with G33S, N35H, S55G, G59S, N101T
# VL: B1 VL with V30L, S31T, V33L, L47V, R54L, A55H, L94T
# notes: Group II
# B24: 367_C09 (antibody, V domains shown)
# VH: B1 VH with N35H, S55G, K58T, G59S
# VL: B1 VL with V30L, L47V, A55H, D93N, L94T
# notes: Group I
# B25: 367_C12 (antibody, V domains shown)
# VH: B1 VH with D30S, N35H, A49S, S50G, S55G, K58T, G59S, N101T
# VL: B1 VL with V30L, A51T, A55H, D93E, L94S
# notes: Group II
# B26: 367_D11 (antibody, V domains shown)
# VH: B1 VH with N35H, A49S, S50N, S55G, G59S, H106A
# VL: B1 VL with V30I, V33L, L94S
# notes: Group I
# B27: 367_E08 (antibody, V domains shown)
# VH: B1 VH with D30S, S31D, S55G, K58T, G59S, N101T
# VL: B1 VL with V30L, V33L, A51T, L94N
# notes: Group II
# B28: 367_E10 (antibody, V domains shown)
# VH: B1 VH with D30S, N35H, A49S, S55G, K58T, N101T
# VL: B1 VL with V30L, D93E
# notes: Group II
# B29: 367_F06 (antibody, V domains shown)
# VH: B1 VH with D30S, A49S, K58T, G59S, H106A
# VL: B1 VL with V30S, A51V, L94S
# notes: Group I
# B30: 367_F08 (antibody, V domains shown)
# VH: B1 VH with D30S, N35H, A49S, K58T, G59S, N101T
# VL: B1 VL with V30L, L47V, Y92N, D93E
# notes: Group II
# B31: 367_F10 (antibody, V domains shown)
# VH: B1 VH with A49S, S50G, K58T, G59S, N101T
# VL: B1 VL with V30L, S31T, V33L, L94T
# notes: Group II
# B32: 367_G03 (antibody, V domains shown)
# VH: B1 VH with G33S, N35H, S50N, S55G, K58T, G59S, N101T
# VL: B1 VL with L47V, A55H
# notes: Group II
# B33: 367_G11 (antibody, V domains shown)
# VH: B1 VH with D30S, N35H, S55G, K58T, G59S, N101T
# VL: B1 VL with V30L, S31T, V33L, A55H, Y92D, L94S
# notes: Group II
# B34: 367_H01 (antibody, V domains shown)
# VH: B1 VH with A49S, S50G, S55G, G59S, H106A
# VL: B1 VL with V30L, S31T, V33L, L47V, L94N
# notes: Group I
# B35: 367_H08 (antibody, V domains shown)
# VH: B1 VH with A49S, S55G, K58T, G59S, N101T
# VL: B1 VL with V30L, S31T, A55H, D93N
# notes: Group II
# B36: 368_A02 (antibody, V domains shown)
# VH: B1 VH with S50G, S55G, G59S
# VL: B1 VL with V30I, L47V, L94T
# notes: Group I
# Biological target: T1, biotinylated goat anti-human kappa light chain
# T1 construct: positive control of the ELISA
# Assay: ELISA, positive control
# How it was run: (§1)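 Binding signal was read by ELISA after ACVR2A-specific monoclonal antibodies were tested against human ACVR2A and mouse ACVR2A, with human Fc as the negative control.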
# Further: test concentration or dose not given here.
row,optical density,Binder
1,3.58 OD,B1
2,3.4 OD,B2
3,3.22 OD,B3
4,3.39 OD,B4
5,3.4 OD,B5
6,3.48 OD,B6
7,3.48 OD,B7
8,3.66 OD,B8
9,3.14 OD,B9
10,3.35 OD,B10
11,3.6 OD,B11
12,3.52 OD,B12
13,3.56 OD,B13
14,3.41 OD,B14
15,3.59 OD,B15
16,3.71 OD,B16
17,3.52 OD,B17
18,3.44 OD,B18

row,optical density,Binder
1,3.36 OD,B19
2,3.34 OD,B20
3,3.37 OD,B21
4,3.6 OD,B22
5,3.5 OD,B23
6,3.44 OD,B24
7,3.58 OD,B25
8,3.39 OD,B26
9,3.43 OD,B27
10,3.48 OD,B28
11,3.35 OD,B29
12,3.54 OD,B30
13,3.42 OD,B31
14,3.6 OD,B32
15,3.56 OD,B33
16,3.65 OD,B34
17,3.54 OD,B35
18,3.69 OD,B36

# Biological target: mouse ACVR2A (mouse, UniProt P27038 20-135, limits assumed)
# Sequence (P27038 20-135 limits assumed): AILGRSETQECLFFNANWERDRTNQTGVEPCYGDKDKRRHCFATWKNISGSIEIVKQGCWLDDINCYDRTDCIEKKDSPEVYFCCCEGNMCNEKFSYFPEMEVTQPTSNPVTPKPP
# Assay: ELISA
# How it was run: as §1
row,optical density,Binder
1,2.69 OD,B1
2,1.99 OD,B2
3,1.92 OD,B3
4,2.53 OD,B4
5,2.36 OD,B5
6,2.46 OD,B6
7,2.38 OD,B7
8,2.72 OD,B8
9,1.86 OD,B9
10,2 OD,B10
11,2.11 OD,B11
12,2.21 OD,B12
13,2.32 OD,B13
14,2.82 OD,B14
15,2.83 OD,B15
16,2.77 OD,B16
17,2.83 OD,B17
18,2.45 OD,B18

row,optical density,Binder
1,2.57 OD,B19
2,2.09 OD,B20
3,2.43 OD,B21
4,2.46 OD,B22
5,2.51 OD,B23
6,2.77 OD,B24
7,2.1 OD,B25
8,2.54 OD,B26
9,2.37 OD,B27
10,2.98 OD,B28
11,2.04 OD,B29
12,2.19 OD,B30
13,2.36 OD,B31
14,2.63 OD,B32
15,2.67 OD,B33
16,2.69 OD,B34
17,2.47 OD,B35
18,2.74 OD,B36

# Biological target: T2, human ACVR2A (human, UniProt P27037 20-135, limits assumed)
# T2 construct: also called activin receptor, type II A
# T2 sequence (P27037 20-135 limits assumed): as the sequence (P27038 20-135 limits assumed) above, with R20K, I73V counted along it
# Assay: ELISA
# How it was run: as §1
row,optical density,Binder
1,2.45 OD,B1
2,1.82 OD,B2
3,1.8 OD,B3
4,2.3 OD,B4
5,2.01 OD,B5
6,2.36 OD,B6
7,2.23 OD,B7
8,2.69 OD,B8
9,1.68 OD,B9
10,1.97 OD,B10
11,2.15 OD,B11
12,2.05 OD,B12
13,2.16 OD,B13
14,2.68 OD,B14
15,2.71 OD,B15
16,2.79 OD,B16
17,2.69 OD,B17
18,2.58 OD,B18

row,optical density,Binder
1,2.34 OD,B19
2,2.06 OD,B20
3,2.42 OD,B21
4,2.34 OD,B22
5,2.12 OD,B23
6,2.41 OD,B24
7,2.06 OD,B25
8,2.4 OD,B26
9,2.04 OD,B27
10,2.77 OD,B28
11,2.01 OD,B29
12,2.08 OD,B30
13,2.21 OD,B31
14,2.59 OD,B32
15,2.56 OD,B33
16,2.82 OD,B34
17,2.27 OD,B35
18,2.57 OD,B36

# Reference: patent publication US20210380703A1 (RIGEL PHARMACEUTICALS, published 2021)
